{
  "source": "the Human Domainome abundance scans (Beltran et al. 2025)",
  "parents": {"B1": {"name": "Far upstream element-binding protein 2, residues 142 to 214; numbered along this chain, Q92945 (parent)", "chain": "RTSMTEEYRVPDGMVGLIIGRGGEQINKIQQDSGCKVQISPDSGGLPERSVSLTGAPESVQKAKMMLDDIVSR"}},
  "note": "± gives the uncertainty stated by the source.",
  "data": [
    {"variants_of": "B1", "assay": "abundance fitness (aPCA) (normalised: wild type 0, dead -1); higher = more abundant; growth selection in yeast, the domain comes from the species named", "details": "Homo sapiens", "values": [
      {"variant": "RTSMTEEYRVPDGMVGLIIGRGGEQINKIQQRSGCKVQISPDSGGLPERSVSLTGAPESVQKAKMMLDDIVSR", "note": "[D32R]", "abundance fitness": "-0.085 ± 0.042"},
      {"variant": "RTSMTEEYRVPDGLVGLIIGRGGEQINKIQQDSGCKVQISPDSGGLPERSVSLTGAPESVQKAKMMLDDIVSR", "note": "[M14L]", "abundance fitness": "-0.048 ± 0.04"},
      {"variant": "RTSMTEEYRVPDGMVGLIIGRGGEQINKIQQDSGCKVQISPDSGRLPERSVSLTGAPESVQKAKMMLDDIVSR", "note": "[G45R]", "abundance fitness": "-0.164 ± 0.042"},
      {"variant": "RTSMTEEYRVPDGMVGLIIGRGGEQINKIQQDSGCKVQISPDSGELPERSVSLTGAPESVQKAKMMLDDIVSR", "note": "[G45E]", "abundance fitness": "-0.064 ± 0.054"},
      {"variant": "RTSMTEEYRVPDGMVGLIIGRGGEQINKIQQDSGCKVQISPDDGGLPERSVSLTGAPESVQKAKMMLDDIVSR", "note": "[S43D]", "abundance fitness": "-0.031 ± 0.06"},
      {"variant": "RTSMTEEYRVPDGMVGLIIGRGGEQINKIQQDSGCKVQISPDCGGLPERSVSLTGAPESVQKAKMMLDDIVSR", "note": "[S43C]", "abundance fitness": "-0.135 ± 0.066"},
      {"variant": "RTSMTEEYRVPDGMVGLIIGRGGEQINKIQQDSGCKVQISPDNGGLPERSVSLTGAPESVQKAKMMLDDIVSR", "note": "[S43N]", "abundance fitness": "-0.046 ± 0.075"},
      {"variant": "RTSMTEEYRVPDGMVGLFIGRGGEQINKIQQDSGCKVQISPDSGGLPERSVSLTGAPESVQKAKMMLDDIVSR", "note": "[I18F]", "abundance fitness": "-0.122 ± 0.071"},
      {"variant": "GTSMTEEYRVPDGMVGLIIGRGGEQINKIQQDSGCKVQISPDSGGLPERSVSLTGAPESVQKAKMMLDDIVSR", "note": "[R1G]", "abundance fitness": "-0.071 ± 0.037"},
      {"variant": "RTSMTEEYRVPDGMVGLIIGRGGEQINKIQQDCGCKVQISPDSGGLPERSVSLTGAPESVQKAKMMLDDIVSR", "note": "[S33C]", "abundance fitness": "-0.053 ± 0.061"},
      {"variant": "RTSMTEEYRVPDGMVGLIIGRGGEQINKIQQDSGCKVQISPDSGGLPERSVSLTGAPESVQKAKMMLDDIVKR", "note": "[S72K]", "abundance fitness": "-0.048 ± 0.062"},
      {"variant": "RTSMTEEYRVPDGMVGLIIGRGGEQINKIQQDSGCKVQISPDSGGLPERSVSLTGAPESVQKAKMMLDDIVNR", "note": "[S72N]", "abundance fitness": "0.026 ± 0.076"},
      {"variant": "RTSMTEEYRVPDGMVGLIIGRGGEQINKIQQDSGCKVQISPDSGGLPERSVSLTGAPESVQKAKMMLDDIVRR", "note": "[S72R]", "abundance fitness": "0.052 ± 0.039"},
      {"variant": "RTSMTEEYRVPDGMVGLIIGRGGEQINKIQQDSGCKVQISPDSGGLPERSVSLTGAPESVQKAKMCLDDIVSR", "note": "[M66C]", "abundance fitness": "-0.427 ± 0.069"},
      {"variant": "RTSMTEEYRVPDGMVGLIIGRGGEQINKIQQDSGCKVQISPDSGGLPERSVSLTGAPESVQKAKMYLDDIVSR", "note": "[M66Y]", "abundance fitness": "-0.379 ± 0.086"},
      {"variant": "RTSMTEEYRVPDGMVGLIIGRGGEQINKIQQDSGCKVQLSPDSGGLPERSVSLTGAPESVQKAKMMLDDIVSR", "note": "[I39L]", "abundance fitness": "-0.091 ± 0.043"},
      {"variant": "RTSMTEEYRVPDGMVGLIIGRGGEQINKIQQDSGCKVQSSPDSGGLPERSVSLTGAPESVQKAKMMLDDIVSR", "note": "[I39S]", "abundance fitness": "-0.572 ± 0.053"},
      {"variant": "RTSMTEEYRVPDGMVGLIIGRGGEQINKIQQDSGCKVQISPDSHGLPERSVSLTGAPESVQKAKMMLDDIVSR", "note": "[G44H]", "abundance fitness": "-0.083 ± 0.069"},
      {"variant": "RTSMTEEYRVPDGMVGLIIGRGGEQINKIQQDSNCKVQISPDSGGLPERSVSLTGAPESVQKAKMMLDDIVSR", "note": "[G34N]", "abundance fitness": "-0.219 ± 0.1"},
      {"variant": "RTSMTEEYRVPDGMVGLIIGRGGEQINKIQQDSHCKVQISPDSGGLPERSVSLTGAPESVQKAKMMLDDIVSR", "note": "[G34H]", "abundance fitness": "-0.384 ± 0.1"},
      {"variant": "RTSMTEEYRVPDGMVGLIIGRGGEQINKIQQDSGCKVQISPDSGGLPERSVSLTGAPESVQKAKMMLDNIVSR", "note": "[D69N]", "abundance fitness": "-0.094 ± 0.066"},
      {"variant": "RTSMTEEYRVPDGMVGLIIGRGGEQPNKIQQDSGCKVQISPDSGGLPERSVSLTGAPESVQKAKMMLDDIVSR", "note": "[I26P]", "abundance fitness": "-0.639 ± 0.065"},
      {"variant": "RTSMTEEYRVPDGMVGLIIGRGGEQVNKIQQDSGCKVQISPDSGGLPERSVSLTGAPESVQKAKMMLDDIVSR", "note": "[I26V]", "abundance fitness": "-0.146 ± 0.05"},
      {"variant": "RTSMTEEYRVPDGMVGLIIGRGGEQCNKIQQDSGCKVQISPDSGGLPERSVSLTGAPESVQKAKMMLDDIVSR", "note": "[I26C]", "abundance fitness": "-0.524 ± 0.29"},
      {"variant": "RTSMTEEYRVPDGMVGLIIGRGGEQINKIQQDSGCKVQISPKSGGLPERSVSLTGAPESVQKAKMMLDDIVSR", "note": "[D42K]", "abundance fitness": "-0.014 ± 0.067"},
      {"variant": "RTSMTEEYRVPDGMVGLIIGRGGEQINKIQQDSGCKVQISPSSGGLPERSVSLTGAPESVQKAKMMLDDIVSR", "note": "[D42S]", "abundance fitness": "-0.038 ± 0.047"},
      {"variant": "RTSMTGEYRVPDGMVGLIIGRGGEQINKIQQDSGCKVQISPDSGGLPERSVSLTGAPESVQKAKMMLDDIVSR", "note": "[E6G]", "abundance fitness": "-0.189 ± 0.034"},
      {"variant": "RTSMTCEYRVPDGMVGLIIGRGGEQINKIQQDSGCKVQISPDSGGLPERSVSLTGAPESVQKAKMMLDDIVSR", "note": "[E6C]", "abundance fitness": "0.051 ± 0.053"},
      {"variant": "RTSMTEEYRVPDGMVGLIIGRGGEQINKIQQDSGCKVQISPDSGGLPERSVSLTGAPESVQKAKMMGDDIVSR", "note": "[L67G]", "abundance fitness": "-0.602 ± 0.038"},
      {"variant": "RTSMTEEYRVPDGMVGLIIGRGGEQINKIQQDSGCKVQISPDSGGNPERSVSLTGAPESVQKAKMMLDDIVSR", "note": "[L46N]", "abundance fitness": "-0.144 ± 0.088"},
      {"variant": "RTSMTEEYRVPDGMVGLIIGRGGEQINKIQQDSGCKVQISPDSGGSPERSVSLTGAPESVQKAKMMLDDIVSR", "note": "[L46S]", "abundance fitness": "0.004 ± 0.044"},
      {"variant": "RTGMTEEYRVPDGMVGLIIGRGGEQINKIQQDSGCKVQISPDSGGLPERSVSLTGAPESVQKAKMMLDDIVSR", "note": "[S3G]", "abundance fitness": "0.003 ± 0.036"},
      {"variant": "RTSMTEEYRVPDGMVGLIIGRGGEQINKIQQDSGCKVQISPDSGGLPERSVSLTGAPSSVQKAKMMLDDIVSR", "note": "[E58S]", "abundance fitness": "-0.102 ± 0.047"},
      {"variant": "RTSMTEEYRVPDGMVGLIIGRGGEQINKIQQDSGCKVQISPDSGGLPERSVSLTGAPQSVQKAKMMLDDIVSR", "note": "[E58Q]", "abundance fitness": "-0.122 ± 0.059"},
      {"variant": "RTSMTEEYRVPDGMVGLIIGRGGEQINKIQQDSGCKVQISPDSGGLPERSVSLTGAPGSVQKAKMMLDDIVSR", "note": "[E58G]", "abundance fitness": "-0.124 ± 0.042"},
      {"variant": "RTSMTEEYRVPDGMVGLIIGRGGEQINKIQQDSGCKVQISPDSGGLPERSVSLTGAPFSVQKAKMMLDDIVSR", "note": "[E58F]", "abundance fitness": "-0.405 ± 0.11"},
      {"variant": "RTSMTEEYRVPDGMVGLIIGRGGEQINKIQQDSGCKVQISPDSGGLPERSVSLTGAPESVQKAWMMLDDIVSR", "note": "[K64W]", "abundance fitness": "-0.662 ± 0.049"}
    ]}
  ]
}
